The source of these data is article PMC4600334, “Myostatin blockade with a fully human monoclonal antibody induces muscle hypertrophy and reverses muscle atrophy in young and aged mice” (Skeletal Muscle, 2015).

Sequences and labels used below:
B1: Human growth and differentiation factor 11 (ligand, UniProt O95390 299-407, looked up)
chain: NLGLDCDEHSSESRCCRYPLTVDFEAFGWDWIIAPKRYKANYCSGQCEYMFMQKYPHTHLVQQANPRGSAGPCCTPTKMSPINMLYFNDKQQIIYGKIPGMVVDRCGCS
notes: human growth and differentiation factor 11 (GDF11), purchased from R&D Systems; also called GDF11; GDF-11; source: bought: R&D Systems
B2: Human activin A (ligand, UniProt P08476 311-426, looked up)
chain: GLECDGKVNICCKKQFFVSFKDIGWNDWIIAPSGYHANYCEGECPSHIAGTSGSSLSFHSTVINHYRMRGHSPFANLKSCCVPTKLRPMSMLYYDDGQNIIKKDIQNMIVEECGCS
notes: human activin A (inhibin beta A chain), purchased from R&D Systems; source: bought: R&D Systems
B3: Soluble human ActRIIB-hFc (Fc fusion, UniProt Q13705 19-133, looked up)
chain: SGRGEAETRECIYYNANWELERTNQSGLERCEGEQDKRLHCYASWRNSSGTIELVKKGCWLDDFNCYDRQECVATEENPQVYFCCCEGNFCNERFTHLPEAGGPEVTYEPPPTAP
notes: signal peptide in the construct; extracellular domain (1-133) of the human ActRIIB receptor (ACVR2B), in-frame fusion with human IgG1 Fc-domain; also called ActR2B-hFc; source: produced in Chinese hamster ovary (CHO) cells

Test [1] has as its target B3. In words: SPR; Biacore T200, CM5 chip, 25 °C; ActRIIB-hFc captured through its Fc (32-39 RU) by immobilised goat anti-human Fcγ antibody; ligands injected at 40 to 0.78 nM; HBS-T (10 mM HEPES, 150 mM NaCl, 3 mM EDTA, 0.05 % P20, 10 mg/ml carboxymethyldextran, 0.5 mg/ml BSA, pH 7.4); global fit to a 1:1 model. As to conditions: both partners purified. (Surface plasmon resonance follows binding to a sensor surface in real time, without labels.)

Test [2] addresses T1, Human myostatin (human, UniProt O14793 267-375).
T1 sequence (looked up): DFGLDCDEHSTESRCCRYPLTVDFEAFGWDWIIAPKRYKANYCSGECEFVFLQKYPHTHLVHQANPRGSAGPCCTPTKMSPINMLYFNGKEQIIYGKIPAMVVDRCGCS
In words: cell-based or functional assay.

Test [3] deals with B1. Description: cell-based or functional assay.
Test [4] concerns the target B2. In words: cell-based or functional assay.
Test [5] addresses B2. In words: SPR; Biacore T200, CM5 chip, 25 °C; ActRIIB-hFc captured through its Fc (32-39 RU) by immobilised goat anti-human Fcγ antibody; ligands injected at 40 to 0.78 nM; HBS-T (10 mM HEPES, 150 mM NaCl, 3 mM EDTA, 0.05 % P20, 10 mg/ml carboxymethyldextran, 0.5 mg/ml BSA, pH 7.4); global fit to a 1:1 model. Conditions: both partners purified.

Usually Kd stands for a measure of binding affinity in units of concentration. The low end stands for tighter binding, the high end for weaker binding. A word on the koff: it is the rate constant with which the complex falls apart. Read a low koff as a long-lived complex. What is called kon is the rate constant with which the complex forms. In test [1], B1 gave a Kd of 0.014 nM, a T1/2 of 112 min, a dissociation rate constant (koff) of 0.000103 s⁻¹ and a kon of 7.38e+06 M⁻¹ s⁻¹.
On to B2, for which the T1/2 in test [1] stood at 146 min.
As to B3, the “IC50 of inhibition of Smad2/3 luciferase activity in A204/Smad2/3/Luc cells stimulated with a constant 1 nM myostatin” value in test [2] was found to be 0.57 nM. Besides, in test [3], the “IC50 of inhibition of Smad2/3 luciferase activity in A204/Smad2/3/Luc cells stimulated with a constant 0.4 nM GDF11” value came to 0.46 nM. Also, the “IC50 of inhibition of Smad2/3 luciferase activity in A204/Smad2/3/Luc cells stimulated with a constant 0.4 nM activin A” value in test [4] came to 1.2 nM. In addition, in test [5], the Kd turned out to be 0.0866 nM, the off-rate constant (koff) was found to be 7.94e-05 s⁻¹ and the association rate constant (kon) is 917000 M⁻¹ s⁻¹.
